Experimental data from US20250382346A1, “NEURONAL PROMOTERS AND USES THEREOF” (priority 2023, published 2025).

B1: G88P7: 896-bp shortened GPR88 promoter; SEQ ID NO: 46 (nucleic acid, listed as Homo sapiens)
DNA: ATGCCAAGCGTGGAAAGGCTGTCTTTTCCCTGGATGATGTATAACTAAGCAGGAGAGAGCTTCGAGTGGGTTCACCACATCAGCCACCACTCCTGCTTCTGAGCACAGGGTGCTCTCCTCTTGAGCTCAGCTTCTGCTTTTGCAGCCAAGCATTCTTGCTGCTGCTGCCTGCCTGCCCACCCGCCTGGGCTTGCAGCCCGCCACTTTACTTTCTCCAGCCCTGATACCAGCTGAGAAGTCTCCCTGCAGCTGCTAGTTCCTGCCCAGGACCATGTGTGTGGATGCTGCTTGGGAGAAGCGGGCACTTGCTCCTGGCACTGATCCCAGCTGAGTTTCTCCTGTTGATTTCTGGACCACTGATGCTGTTGCTGAGGAGGTATTTCCCGGCATCCCTCCCCCTGAGACACCGGCTAAGGACCAGCCTAAACGCAAGGTAACCTTCACCTCTTTCCCATGGGATTTTCCCCAGCTGGGATATCTCTGCTTTCTCCTGGAACTAGGTCCTCCAGCTGGCAACATATCTCTCTCTCTCTCTCTCTCTCTCTCTCTCTCTCTCTCTCTGTGTGTGTGTGTGTGTGTTGGGGGAGAAGAGGAGACTGTTTTAGGTATTGCTCTGTCCTAGGGCTTCCCCGATACCTGCTGAATCCAATGCAAAGTGGCCTTTCCCCTGGCTCTGGAGACATTTCCGAGGCAGGCACCTGTCATCTGCCACCCCCGTCCTCCTCCTCGAGCTCCCTTTCTCCCCCTCCCCCAGCCCATTATTCTGCTTCAGCCTTTTGTGTCAGTGGCAGAGGGCTGAAGGGATGTCTTTGCCCTTCTGGCAGGCAGGACAGTGTCAGGATGGACCGCGCTGCCAGAAGCCGACGCTAGCGAGGGAGGTGTGAAGAGTTGGCCAG
B2: G88P3: 1395-bp shortened GPR88 promoter; SEQ ID NO: 45 (nucleic acid, listed as Homo sapiens)
DNA: TCTAGATGTACCACTGACATCTGCTTTAAATCTTTTGCCCATTTCATTTTTACCCTCTAACCATTTCATTACTAAAACACAAAACAAACTCCGGAAAGGAGTTTGTTGATGAGAAAACACTGAAAGTACGATTTAAATTGAGGAATGGAGATTTTCTGTGGATAATTGTCTATGTTCCACTTTACCAAAGAAAAATGAATTTCAAGTAGTGCATAAAGTAATTCTCGTTAAAAAATGTGGGAATAAAGAGATCAGTCCTGGGTACTGGGAATATATTTATCTCACAGAAAAATCTTGCCCACAAAATGCATCAGACTGAGATGAAATACTCTAGGGTATATTAAATTTTATTCTAATATTGAAGGGAGGGAAAAAAAGGACGGAAAGAAAAATGAAACAGGATGAAAAATAAGGTGATTGGGAGAGAGAAAAGACAGAGAAACTTGTTAACGACAGGACTTTCTGAGCAAGATATTTTTCTTCCTTTTACAAGTTGGAAGCTATTGAATAATTCATGCCAAGCGTGGAAAGGCTGTCTTTTCCCTGGATGATGTATAACTAAGCAGGAGAGAGCTTCGAGTGGGTTCACCACATCAGCCACCACTCCTGCTTCTGAGCACAGGGTGCTCTCCTCTTGAGCTCAGCTTCTGCTTTTGCAGCCAAGCATTCTTGCTGCTGCTGCCTGCCTGCCCACCCGCCTGGGCTTGCAGCCCGCCACTTTACTTTCTCCAGCCCTGATACCAGCTGAGAAGTCTCCCTGCAGCTGCTAGTTCCTGCCCAGGACCATGTGTGTGGATGCTGCTTGGGAGAAGCGGGCACTTGCTCCTGGCACTGATCCCAGCTGAGTTTCTCCTGTTGATTTCTGGACCACTGATGCTGTTGCTGAGGAGGTATTTCCCGGCATCCCTCCCCCTGAGACACCGGCTAAGGACCAGCCTAAACGCAAGGTAACCTTCACCTCTTTCCCATGGGATTTTCCCCAGCTGGGATATCTCTGCTTTCTCCTGGAACTAGGTCCTCCAGCTGGCAACATATCTCTCTCTCTCTCTCTCTCTCTCTCTCTCTCTCTCTGTGTGTGTGTGTGTGTGTTGGGGGAGAAGAGGAGACTGTTTTAGGTATTGCTCTGTCCTAGGGCTTCCCCGATACCTGCTGAATCCAATGCAAAGTGGCCTTTCCCCTGGCTCTGGAGACATTTCCGAGGCAGGCACCTGTCATTTGCCACCCCCGTCCTCCTCCTCGAGCTCCCTTTCTCCCCCTCCCCCAGCCCATTATTCTGCTTCAGCCTTTTGTGTCAGTGGCAGAGGGCTGAAGGGATGTCTTTGCCCTTCTGGCAGGCAGGACAGTGTCAGGATGGACCGCGCTGCCAGAAGCCGACGCTAGCGAGGGAGGTGTGAA
B3: AAV8R: AAV8 capsid with N385D, insertion of SEQ ID NO: 31 at position 588 and TS to IN mutation; Cap SEQ ID NO: 1 (protein)
chain: MAADGYLPDWLEDNLSEGIREWWALKPGAPKPKANQQKQDDGRGLVLPGYKYLGPFNGLDKGEPVNAADAAALEHDKAYDQQLQAGDNPYLRYNHADAEFQERLQEDTSFGGNLGRAVFQAKKRVLEPLGLVEEGAKTAPGKKRPVEPSPQRSPDSSTGIGKKGQQPARKRLNFGQTGDSESVPDPQPLGEPPAAPSGVGPNTMAAGGGAPMADNNEGADGVGSSSGNWHCDSTWLGDRVITTSTRTWALPTYNNHLYKQISNGTSGGATNDNTYFGYSTPWGYFDFNRFHCHFSPRDWQRLINNNWGFRPKRLSFKLFNIQVKEVTQNEGTKTIANNLTSTIQVFTDSEYQLPYVLGSAHQGCLPPFPADVFMIPQYGYLTLNDGSQAVGRSSFYCLEYFPSQMLRTGNNFQFTYTFEDVPFHSSYAHSQSLDRLMNPLIDQYLYYLSRTQTTGGTANTQTLGFSQGGPNTMANQAKNWLPGPCYRQQRVSTTTGQNNNSNFAWTAGTKYHLNGRNSLANPGIAMATHKDDEERFFPSNGILIFGKQNAARDNADYSDVMLTSEEEIKTTNPVATEEYGIVADNLQRGNLADQDYTKTARQAATADVNSQGALPGMVWQNRDVYLQGPIWAKIPHTDGNFHPSPLMGGFGLKHPPPQILIKNTPVPADPPTTFNQSKLNSFITQYSTGQVSVEIEWELQKENSKRWNPEIQYTSNYYKSINVDFAVNTEGVYSEPRPIGTRYLTRNL

Legend:
Assay type in all cases: in vivo, mice
[1] = test system: striatonigral projection neurons (D1 MSNs); experiment: Retrograde labeling of striatal MSNs after AAV injection into the SNr, EYFP+ cell counting; settings: for labeled neurons, reporter expression in MSNs by promoter (FIG. 4B), mean±SEM: promoter comparison
Description: To improve efficiency, multiple rounds of mutations of AAV capsids were performed on a series of different serotypes. Mutations were introduced at three sites in the AAV8 capsid protein to make AAV8R, including N385D, insertion of […] (SEQ ID NO: 31) at position 588, and TS711-7121N. Two additional mutations of V183E and N41 IS were incorporated into the AAV8R12 capsid protein (FIG. 1A). The labeling pattern of the AAV8R12 capsid and G88 promoter combination was determined.
was inserted at the N587-R588 position; two other point mutations of the AAV2 Cap protein were made to develop rAAV2-retro. Similar mutations were then placed at equivalent positions for four other AAV serotypes (FIGS. 1A-1C and 25, TABLE 1), AAV1/5/6/8 (FIG. 1A). […] When administered into the SNr, 4.86±0.22 times EYFP positive MSNs in mice infected by AAV8R-hSyn-EYFP were observed as compared to those infected by rAAV2-retro-hSyn-EYFP (FIG. 2A-2C).
Baseline infectivity of rAAV2-retro was approximately 0.2±0.03×10^4 cells per striatal hemisphere (using a hSyn promoter) (TABLE 2). […] Compared to the current standard retrograde AAV, rAAV2-retro, AAV8R12 labeled 7.72±0.78-times more MSNs after nigral delivery (FIG. 2B-2C, TABLE 1). […] The AAV8R12 was generated using the AAV8R plasmid as a template.
Mice were anesthetized with sodium pentobarbital (Nembutal; 80 mg/kg, i.p.), and then placed into a stereotaxic device (KOPF). Eye cream was applied on both corneas to avoid dehydration. The skull above the targeted areas was thinned with a dental drill and carefully removed. Injections were conducted with a 10 μL syringe connected to a 33-Gauge needle (Neuros; Hamilton), using a microsyringe pump (Legato 130, KD Scientific). A total volume of 200 nL virus was injected into the SNr at a speed of 20 nL/min. The coordinates for the SNr were 3.4 mm posterior, 1.3 mm lateral, 4.8 mm ventral to the bregma.
Images were acquired using a confocal microscope (Carl Zeiss, LSM880) and an Axiolmager. Z1 microscope with apotome (Carl Zeiss). Brain structures were identified microscopically and in digital photos using a mouse brain atlas. To analyze the number of EYFP+ cells in the striatum, slices from rostral to caudal striatum were used. Every sixth section was analyzed, and numbers of EYFP+ cells were multiplied by six to acquire the approximate total number and mean number of cells per animal. Images were processed using ImageJ (NIH, USA), and final quantifications were independently performed manually by two blinded experimenters.

substantia nigra (SN) = experiment: Promoter screening: YFP-expressing neurons after injection of AAVs into the SNr, substantia nigra; settings: numbers of YFP-expressing neurons per animal
Text: (§1) To find promoters that offer high levels of expression in MSNs, gene expression databases were scanned to identify a list of eight genes that have highly enriched striatal expression compared to other parts of the basal ganglia (BG). Genes highly expressed in the striatum, but not other parts of the basal ganglia, were first selected as candidates.
(§2) Brain profiles of two epigenetic marks for enhancers and promoters, monomethylation of histone H3 lysine 4 (H3K4me1) and acetylation of histone H3 lysine 27 (H3K27ac) were checked and approximately 2 kilobase-long sequences around the transcriptional start site (TSS) that have high levels of H3K4me1 and/or H3K27ac were identified in mouse brain. Homologous sequences at equivalent positions of the human genome were then cloned onto an AAV backbone, and the activity of the homologous sequences in directing reporter expression was tested in mice after injections of AAVs into the SNr (FIG. 3A-C, TABLE 3).
(§3) G88P2 (2259 bp) was cloned with the following primers: 5′-[…] (SEQ ID NO.: 36) and 3-[…] (SEQ ID NO.: 37). To increase the payload of AAV genome, the G88P2 promoter was shorted using restriction enzymes, and two derivatives, G88P3 and G88P7, were made which were 1395-bp and 896-bp long, respectively (FIG. 3A-3C). Comparative efficiency in labeling MSNs for the two shortened promoters was observed. For mice that received viral injections into the SNr, viruses expressing EYFP driven by G88P3 and G88P7 promoters labeled 3.7±0.66×104 and 3.95±0.73×104 MSNs per mouse, respectively, compared to 1.61±0.16×104 labeled MSNs by hSyn promoter (FIG. 4B).
(§4) Region-selective promoter identification was based on the Allen Brain Atlas in situ hybridization (ISH) data (mouse.brain-map.org/). Genes highly expressed in the striatum but not in other parts of the basal ganglia were first selected as candidates. H3K4me 1 and H3K27ac are known epigenetic marks for active promoters and enhancers. Thus, we identified regions with high levels of these two chromatin modification marks in mouse brain as candidate regions based on the ENCODE annotation data on the UCSC Genome Browser (genome.ucsc.edu/). To further extend the promoters' potential application in primates, the sequences of interest were PCR-amplified from human genomic DNA. Based on the above strategies, GPR88 was selected as a candidate gene. […]
(§5) Images were acquired using a confocal microscope (Carl Zeiss, LSM880) and an Axiolmager. […] Every sixth section was analyzed, and numbers of EYFP+ cells were multiplied by six to acquire the approximate total number and mean number of cells per animal. Images were processed using ImageJ (NIH, USA), and final quantifications were independently performed manually by two blinded experimenters.

striatum (STR) = experiment: Promoter screening: YFP-expressing neurons after injection of AAVs into the SNr, striatum; settings: numbers of YFP-expressing neurons per animal
Text: as §1, §2, §3, §4, §5

[2] = test system: MSNs in nucleus accumbens; experiment: Retrograde labeling of accumbal MSNs after delivery into ventral pallidum or lateral hypothalamus; settings: stereotaxic delivery into ventral pallidum or lateral hypothalamus

Row | Molecule | labeled neurons, reporter expression in MSNs by promoter (FIG. 4B), mean±SEM ([1]; n=3 mice per group) | Activity Level SN (substantia nigra (SN)) | Activity Level STR (striatum (STR)) | labeling of MSNs in nucleus accumbens [2] | EYFP positive / labeled MSNs compared to rAAV2-retro ([1]; after nigral delivery, hSyn-EYFP) | labeled striatonigral projection neurons (FIG. 2C), mean±SEM ([1]; capsid comparison, injection into SNr of wild type mice, n=3 mice per group) | Mean (AAVs with capsid and promoter) ([1]; labeled cells after nigral injection in mice, b188 refers to it as cells per striatal hemisphere, SD and SEM in own columns)
1 | G88P2: 2259-bp promoter from the gene GPR88; SEQ ID NO: 44 | 36290±3705 | + (<5k) | ++++ (>25k) | – | – | – | –
2 | R9P1: promoter from gene RGS9, 2152 bp; SEQ ID NO: 47 | – | + (<5k) | +++ (10k-25k) | – | – | – | –
3 | B1 | 39460±7281 | + (<5k) | ++++ (>25k) | – | – | – | –
4 | B2 | 37026±6646 | + (<5k) | ++++ (>25k) | – | – | – | –
5 | B3 | – | – | – | robust labeling of MSNs | 4.86±0.22 times | 10092±463.9 | 10092
